The text below walks through data of patent US20210214435A1.

The labels stand for the following.
B1: Fab #4 comprising a modified heavy chain constant region (Fab, V domains shown)
VH: QVQLVQSGAEVKKPGASVKVSCKASGGAFTSSYMHWVRQAPGQGLEWMGIIEPTGASTLYAQRFQGRVTMTRDTSTSTVYMELSSLRSEDTAVYYCARTGIALPLGFDLWGQGTLVTVSS
VL: QSVLTQPPSVSAAPGQKVTISCSGSSSNIGNNYVSWYQQLPGTAPKLLIYDNNKRPSGIPDRFSGSKSGTSATLGITGLQTEDEADYYCAAWSTRFRWVFGGGTKLTVLG
B2: Reference Control Antibody RefFab #1 (humanized GPVI antibody of WO2011073954A2, SANOFI) (Fab, V domains shown)
VH: EVQLLESGPGLVAPSGSLSITCTVSGFSLTGYGVNWVRQPPGKGLEWLGMIWGDGSTDYQSTLKSRLSISKDNSKSQVFLKMNSLRTDDTARYYCARDLPMDYWGLGTSVTVSS
VL: DIQMTQSPSSLSASVGGRVTITCKASQDINKYIAWYQHKPGKGPSLLIHYTSTLQPGVPSRFSGSGSGRDYSFSISNLQPEDIATYYCLQYANLLTFGGGTKLEIKR
B3: Fab #1 comprising a modified heavy chain constant region (Fab, V domains shown)
VH: QVQLVQSGAEVKKPGASVKVSCKASGYTFTSHYMHWVRQAPGQGLEWMGLIEPSEGETEYAQRFQGRVTMTRDTSTSTVYMELSSLRSEDTAVYYCARDSSRSYPLGFDIWGQGTLVTVSS
VL: QSVLTQPPSVSAAPGQKVTISCSGSSSNIGNNYVSWYQQLPGTAPKLLIYDNNKRPSGIPDRFSGSKSGTSATLGITGLQTEDEADYYCAAWDFRSSRWVFGGGTKLTVLG
B4: Fab #2 comprising a modified heavy chain constant region (Fab, V domains shown)
VH: QVQLVESGGGLVKPGGSLRLSCAASGFSFSDHYMSWIRQAPGKGLEWVSSVGSEGKFIDYAASVKGRFTISRDNAKNSLYLQMNSLRAEDTAVYYCARHYREFRWHYYYFDYWGQGTLVTVSS
VL: QSVLTQPPSVSGAPGQRVTISCTGSSSNIGAGYDVHWYQQLPGTAPKLLIYGNSNRPSGVPDRFSGSKSGTSASLAITGLQAEDEADYYCQSHDLGAHVWVFGGGTKLTVLG
B5: Fab #3 comprising a modified heavy chain constant region (Fab, V domains shown)
VH: QVQLVESGGGLVKPGGSLRLSCAASGFSFGDYYVSWIRQAPGKGLEWVSAIGGSGSAVQYAESVKGRFTISRDNAKNSLYLQMNSLRAEDTAVYYCARHYREFRWHYYYFDYWGQGTLVTVSS
VL: B4 VL

One test deals with human GPVI on the cell surface of human platelets (human) (UniProt Q9HCN6). Briefly: FACS on washed human platelets from PRP (one exemplary donor), PE-conjugated detection antibody, median fluorescence.
Usually EC50 (read off the curve) stands for the midpoint of the concentration-response curve. In the case of B1, the EC50 (read off the curve) was 0.5 µg/mL.
In turn, B2 gave an EC50 (read off the curve) of 1 µg/mL.
As for B3, the EC50 (read off the curve) amounted to 0.2 µg/mL.
In turn, B4 showed an EC50 (read off the curve) of 0.4 µg/mL.
Turning to B5, the EC50 (read off the curve) worked out at 0.4 µg/mL.

In another test the target is human GPVI-Fc (isoform and haplotype not stated) used in the competition ELISA (human) (UniProt Q9HCN6). Nature of the test: Competition ELISA (MSD): human GPVI-Fc preincubated with Fab, then on coated VitroCol (competitor).
For orientation: IC50 means the midpoint of a concentration-inhibition curve. The low end stands for greater potency, the high end for weaker potency. The molecule B1 displayed an IC50 of 10.6 nM and a Maximum inhibition at 200 nM Fab [%] of 82%.
Take B2: the IC50 worked out at 5.8 nM and the Maximum inhibition at 200 nM Fab [%] was 100%.
In the case of B3, the IC50 was found to be 8.2 nM and the Maximum inhibition at 200 nM Fab [%] is 79%.
B4 gave an IC50 of 5.4 nM and a Maximum inhibition at 200 nM Fab [%] of 100%.
As for B5, the IC50 was 5.6 nM and the Maximum inhibition at 200 nM Fab [%] turned out to be 99%.

The target is the same in the next test. Nature of the test: Competition ELISA (MSD): human GPVI-Fc preincubated with Fab, then on coated rat-tail collagen (competitor).
Consider B1, for which the IC50 is 8.2 nM and the Maximum inhibition at 200 nM Fab [%] was 86%.
The molecule B2 came in with an IC50 of 7 nM and a Maximum inhibition at 200 nM Fab [%] of 99%.
Turning to B3, the 50% inhibitory concentration (IC50) was found to be 11 nM and the Maximum inhibition at 200 nM Fab [%] is 89%.
In the case of B4, the IC50 turned out to be 6.3 nM and the Maximum inhibition at 200 nM Fab [%] was 100%.
On the same counts, the results for B5 are 6.3 nM and 99%.

A further test shares this target. Briefly: Competition ELISA (MSD): human GPVI-Fc preincubated with Fab, then on coated CRP-XL (competitor). In general terms: An ELISA detects its analyte on a solid surface through an enzyme-linked reagent.
As to B1, the IC50 is 13.2 nM and the Maximum inhibition at 200 nM Fab [%] worked out at 47%.
On to B2, for which the IC50 turned out to be 10.6 nM and the Maximum inhibition at 200 nM Fab [%] stood at 100%.
B3 gave an IC50 of 10.9 nM and a Maximum inhibition at 200 nM Fab [%] of 63%.
Consider B4, for which the IC50 stood at 8.3 nM and the Maximum inhibition at 200 nM Fab [%] was 100%.
As to B5, the IC50 is 8.7 nM and the Maximum inhibition at 200 nM Fab [%] came out at 100%.

Another test deals with human GPVI on the cell surface of human platelets (human) (UniProt Q9HCN6). Nature of the test: FACS on washed human platelets from PRP, Fab directly conjugated with PE, average + SD of 3 donors, signal given as GPVI molecules per cell.
In the case of B1, the EC50 (read off the curve) amounted to 0.6 µg/mL.
On the same count and under the same terms, with B5 the figure was 0.5 µg/mL.
